Molecular target: SNA I lectin from Sambucus nigra (Sambucus nigra)
Assay: electrochemical impedance spectroscopy

Sequence of SNA I lectin from Sambucus nigra (Sambucus nigra) (Q41358 29-289 limits assumed, chain 1 of 2): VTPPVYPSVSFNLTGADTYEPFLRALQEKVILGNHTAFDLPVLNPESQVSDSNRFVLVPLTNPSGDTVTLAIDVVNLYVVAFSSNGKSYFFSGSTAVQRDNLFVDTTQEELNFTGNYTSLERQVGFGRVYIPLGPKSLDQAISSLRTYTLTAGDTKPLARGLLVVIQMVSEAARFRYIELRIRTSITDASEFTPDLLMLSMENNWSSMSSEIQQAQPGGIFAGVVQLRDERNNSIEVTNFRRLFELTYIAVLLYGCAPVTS
Sequence of SNA I lectin from Sambucus nigra (Sambucus nigra) (Q41358 309-570 limits assumed, chain 2 of 2): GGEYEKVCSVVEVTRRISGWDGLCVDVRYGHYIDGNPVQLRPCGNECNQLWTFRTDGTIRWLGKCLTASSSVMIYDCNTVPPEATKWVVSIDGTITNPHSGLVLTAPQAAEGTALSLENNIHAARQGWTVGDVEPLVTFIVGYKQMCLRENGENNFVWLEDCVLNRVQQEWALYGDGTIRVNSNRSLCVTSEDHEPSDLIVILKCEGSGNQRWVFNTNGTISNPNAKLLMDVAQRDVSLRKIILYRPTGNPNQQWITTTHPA

B1: fetuin (natural protein)
chain: IPLDPVAGYKEPACDDPDTEQAALAAVDYINKHLPRGYKHTLNQIDSVKVWPRRPTGEVYDIEIDTLETTCHVLDPTPLANCSVRQQTQHAVEGDCDIHVLKQDGQFSVLFTKCDSSPDSAEDVRKLCPDCPLLAPLNDSRVVHAVEVALATFNAESNGSYLQLVEISRAQFVPLPVSVSVEFAVAATDCIAKEVVDPTKCNLLAEKQYGFCKGSVIQKALGGEDVRVTCTLFQTQPVIPQPQPDGAEAEAPSAVPDAAGPTPSAAGPPVASVVVGPSVVAVPLPLHRAHYDLRHTFSGVASVESSSGEAFHVGKTPIVGQPSIPGGPVRLCPGRIRYFKI
- specific sensitivity (OxASF subtracted): 259 Ω decade^-1

Reference: PMC4881810
